Assay results published in doi:10.1101/444554 (bioRxiv, 2018).

Key:
crystal structure = target: the molecule itself; test: crystal structure
non-reducing SDS-PAGE = target: the molecule itself; test: non-reducing SDS-PAGE
SEC-MALS = target: the molecule itself; test: SEC-MALS

B1: mouse 4-1BB ligand ectodomain (amino acids 140-309) without purification tag, co-expressed with m4-1BB for the complex structure (domain or fragment, UniProt P41274 140-309, looked up)
chain: TTQQGSPVFAKLLAKNQASLCNTTLNWHSQDGAGSSYLSQGLRYEEDKKELVVDSPGLYYVFLELKLSPTFTNTGHKVQGWVSLVLQAKPQVDDFDNLALTVELFPCSMENKLVDRSWSQLLLLKAGHRLSVGLRAYLHGAQDAYRDWELSYPNTTSFGLFLVKPDNPWE
modifications: disulfide linked dimer
How did the “stoichiometry N” value (crystal structure) turn out when B1 was run?
The value was 2.

B2: mouse 4-1BB ligand ectodomain (amino acids 140-309) S256F (domain or fragment, UniProt P41274 140-309, looked up)
chain: TTQQGSPVFAKLLAKNQASLCNTTLNWHSQDGAGSSYLSQGLRYEEDKKELVVDSPGLYYVFLELKLSPTFTNTGHKVQGWVSLVLQAKPQVDDFDNLALTVELFPCSMENKLVDRFWSQLLLLKAGHRLSVGLRAYLHGAQDAYRDWELSYPNTTSFGLFLVKPDNPWE
modifications: inter-molecular disulfide through Cys 246
For B2, which “stoichiometry N” value (non-reducing SDS-PAGE) is on record?
Its value is 2.

B3: mouse 4-1BB ligand ectodomain (amino acids 140-309) C246S (domain or fragment, UniProt P41274 140-309, looked up)
chain: TTQQGSPVFAKLLAKNQASLCNTTLNWHSQDGAGSSYLSQGLRYEEDKKELVVDSPGLYYVFLELKLSPTFTNTGHKVQGWVSLVLQAKPQVDDFDNLALTVELFPSSMENKLVDRSWSQLLLLKAGHRLSVGLRAYLHGAQDAYRDWELSYPNTTSFGLFLVKPDNPWE
With B3 as the protein, how does the “stoichiometry N” value (SEC-MALS) read?
Its value is 2.
